Reference: patent US20210283212A1 (RA PHARMACEUTICALS, published 2021)
Starred links: 1 amine or outer side, 2 acyl side, 3 side chain; linkers in the order of their positions; H or OH if unused. Positions of bridges follow the written chain, without caps; N, C: chain ends. Non-standard residues stand in square brackets, D forms with d. Primed or numbered codes have the meaning given here. No end group written: not given here. mXylyl(3) = bridging moiety between the two residues given in brackets; Tyr(OMe) = O-methyl tyrosine, COc1ccc(C[C@H](N[*:1])C(=O)[*:2])cc1; mXylyl″ = bridging moiety between the two marked residues; Trp(7-aza) = N[C@@H](Cc1c[nH]c2ncccc12)C(=O)O; mXylyl(4) = bridging moiety between residues; NMePhe(4-F) = CN[C@@H](Cc1ccc(F)cc1)C(=O)O; pXylyl = bridging moiety between residues; PEG2000 = polyethylene glycol, 2000 Da; Phe(4-F) = N[C@@H](Cc1ccc(F)cc1)C(=O)O; mXylylene = c1cc(C[*:1])cc(C[*:2])c1; oXylylene = c1ccc(C[*:2])c(C[*:1])c1; hPhe = N[C@@H](CCc1ccccc1)C(=O)O; Phg(2-OMe)′ = not defined here; dChg = N[C@@H](C(=O)O)C1CCCCC1; Chg = N[C@H](C(=O)O)C1CCCCC1; Phg = N[C@H](C(=O)O)c1ccccc1; Tle = CC(C)(C)[C@H](N)C(=O)O; NMeS = CN[C@@H](CO)C(=O)O; NMeA = CN[C@@H](C)C(=O)O; Nva = CCC[C@H](N)C(=O)O; Aib = CC(C)(N)C(=O)O; Sar = CNCC(=O)O

B1: R3004 (peptide)
peptide: Ac-[Nva]CYNN[Tle]E[Trp(7-aza)]EYP[Phg][Tle]-NH2
SMILES: CCC[C@H](NC(C)=O)C(=O)N[C@@H](CS)C(=O)N[C@@H](Cc1ccc(O)cc1)C(=O)N[C@@H](CC(N)=O)C(=O)N[C@@H](CC(N)=O)C(=O)N[C@H](C(=O)N[C@@H](CCC(=O)O)C(=O)N[C@@H](Cc1c[nH]c2ncccc12)C(=O)N[C@@H](CCC(=O)O)C(=O)N[C@@H](Cc1ccc(O)cc1)C(=O)N1CCC[C@H]1C(=O)N[C@H](C(=O)N[C@H](C(N)=O)C(C)(C)C)c1ccccc1)C(C)(C)C
B2: R3057 (peptide)
peptide: MCVERFCD[Tle]Y[Trp(7-aza)]EYP[Phg][Nva]-NH2
modifications: linker 2-7 via mXylyl(4); not fully specified; printed as [mXylyl(2,7)]M-C-V-E-R-F-C-D-Tbg-Y-azaTrp-E-Y-P-Phg-Nvl-NH2
B3: R3049 (peptide)
peptide: Ac-[Nva]C[Phg]T[Trp(7-aza)]EY[NMeS]HC[Nva]-NH2
modifications: linker 2-10 via oXylylene
SMILES: CCC[C@H](NC(=O)[C@@H]1CSCc2ccccc2CSC[C@H](NC(=O)[C@H](CCC)NC(C)=O)C(=O)N[C@@H](c2ccccc2)C(=O)N[C@@H]([C@@H](C)O)C(=O)N[C@@H](Cc2c[nH]c3ncccc23)C(=O)N[C@@H](CCC(=O)O)C(=O)N[C@@H](Cc2ccc(O)cc2)C(=O)N(C)[C@@H](CO)C(=O)N[C@@H](Cc2c[nH]cn2)C(=O)N1)C(N)=O
B4: R3072 (peptide)
peptide: Ac-[Nva][Nva]YEN[Tle]Y[Trp(7-aza)]EYP[Chg][Nva]K-NH2
SMILES: CCC[C@H](NC(C)=O)C(=O)N[C@@H](CCC)C(=O)N[C@@H](Cc1ccc(O)cc1)C(=O)N[C@@H](CCC(=O)O)C(=O)N[C@@H](CC(N)=O)C(=O)N[C@H](C(=O)N[C@@H](Cc1ccc(O)cc1)C(=O)N[C@@H](Cc1c[nH]c2ncccc12)C(=O)N[C@@H](CCC(=O)O)C(=O)N[C@@H](Cc1ccc(O)cc1)C(=O)N1CCC[C@H]1C(=O)N[C@H](C(=O)N[C@@H](CCC)C(=O)N[C@@H](CCCCN)C(N)=O)C1CCCCC1)C(C)(C)C
B5: R3005 (peptide)
peptide: Ac-[Nva]CY[Trp(7-aza)][Sar][Tle][Nva][Trp(7-aza)]EYP[Phg]P-NH2
SMILES: CCC[C@H](NC(C)=O)C(=O)N[C@@H](CS)C(=O)N[C@@H](Cc1ccc(O)cc1)C(=O)N[C@@H](Cc1c[nH]c2ncccc12)C(=O)N(C)CC(=O)N[C@H](C(=O)N[C@@H](CCC)C(=O)N[C@@H](Cc1c[nH]c2ncccc12)C(=O)N[C@@H](CCC(=O)O)C(=O)N[C@@H](Cc1ccc(O)cc1)C(=O)N1CCC[C@H]1C(=O)N[C@H](C(=O)N1CCC[C@H]1C(N)=O)c1ccccc1)C(C)(C)C
B6: R3006 (peptide)
peptide: Ac-YEN[Tle]Y[Trp(7-aza)]EY[Sar][Nva][NMeS]-NH2
SMILES: CCC[C@H](NC(=O)CN(C)C(=O)[C@H](Cc1ccc(O)cc1)NC(=O)[C@H](CCC(=O)O)NC(=O)[C@H](Cc1c[nH]c2ncccc12)NC(=O)[C@H](Cc1ccc(O)cc1)NC(=O)[C@@H](NC(=O)[C@H](CC(N)=O)NC(=O)[C@H](CCC(=O)O)NC(=O)[C@H](Cc1ccc(O)cc1)NC(C)=O)C(C)(C)C)C(=O)N(C)[C@@H](CO)C(N)=O
B7: R3053 (peptide)
peptide: [Nva]CCN[Tle][Phg]C[Tle][NMeS]C[Tle]-NH2
modifications: linker (positions not given here) via mXylylene; also: mXylyl bicyclo: linked cysteines not given here
B8: R3077 (peptide)
peptide: Ac-[Nva][Nva]YEN[Tle]Y[Trp(7-aza)]EYP[Chg][Nva]K
modifications: not fully specified (residue 14, C-terminus); printed as Ac-Nvl-Nvl-Y-E-N-Tbg-Y-azaTrp-E-Y-P-Chg-Nvl-K-(PEG2000) NH2; also: PEG2000 at C-terminal Lys (K-(PEG2000) NH2), attachment unclear

Each binder was assayed against human C5 protein (human, UniProt P01031 19-673; P01031 678-1676) (assay: cell-based or functional assay).

Binder | Avg. IC50, human hemolysis assay [nM]
Ac-[Nva]CFT[Trp(7-aza)]EY[NMeS]AC[Nva]-NH2 (linker 2-10 via mXylyl(3)) [R3090] | > 100000
Ac-[Nva]C[Phg]T[Trp(7-aza)]EYSAC[Nva]-NH2 (linker 2-10 via mXylyl(3)) [R3084] | > 100000
[Nva]CY[NMeS][Phg][NMePhe(4-F)][NMeS]H[NMePhe(4-F)][Sar]C-NH2 (linker 2-11 via mXylyl(4)) [R3051] | > 100000
[Nva]CY[NMeS][Phg][NMePhe(4-F)][NMeS]H[NMePhe(4-F)]GC-NH2 (linker 2-11 via mXylyl(3)) [R3075] | > 75000
Ac-[Nva]C[Phg]T[Trp(7-aza)]E[Tyr(OMe)][NMeS]HC[Nva]-NH2 (linker 2-10 via mXylyl(3)) [R3074] | 308
Ac-[Nva]C[Phg]T[Trp(7-aza)]NY[NMeS]AC[Nva]-NH2 (linker 2-10 via mXylyl(3)) [R3099] | > 100000
Ac-[Nva]C[Phg]T[Trp(7-aza)]DY[NMeS]AC[Nva]-NH2 (linker 2-10 via mXylyl(3)) [R3097] | > 100000
B1 | 53.5
Ac-[Nva]C[Phg][Aib][Trp(7-aza)]EY[NMeS]HC[Nva]-NH2 (linker 2-10 via mXylyl(3)) [R3096] | > 50000
Ac-[Nva]C[Phg]T[Trp(7-aza)]EYPHC[Nva]-NH2 (linker 2-10 via pXylyl) [R3065] | 394
Ac-[Nva]C[Phg]T[Trp(7-aza)]EY[NMeS]HC[Nva]-NH2 (linker 2-10 via pXylyl) [R3050] | 42.9
Ac-[Nva]C[Phg(2-OMe)′]T[Trp(7-aza)]EY[NMeS]HC[Nva]-NH2 (linker 2-10 via mXylyl(3)) [R3087] | > 25000
Ac-[Nva]C[Phg]T[Trp(7-aza)]E[hPhe][NMeS]AC[Nva]-NH2 (linker 2-10 via mXylyl(3)) [R3095] | > 50000
Ac-VC[Phg]T[Trp(7-aza)]EY[NMeS]AC[Nva]-NH2 (linker 2-10 via mXylyl(3)) [R3083] | > 25000
Ac-[Nva]CKE[Phg]YC[NMeS][Tle]K[Trp(7-aza)]EY-NH2 (linker 2-7 via mXylyl″) [R3007] | 314
B2 | 12.4

Binder | Avg. IC50, human hemolysis assay [nM]
B3 | > 3100
PEG2000-[Nva][Nva]YEN[Tle]Y[Trp(7-aza)]EYP[Phg][Nva]-NH2 [R3078] | 568
Ac-[Nva]C[Chg]T[Trp(7-aza)]EY[NMeS]HC[Nva]-NH2 (linker 2-10 via pXylyl) [R3058] | > 10000
Ac-[Chg]C[Phg]T[Trp(7-aza)]EY[NMeS]AC[Nva]-NH2 (linker 2-10 via mXylyl(3)) [R3089] | > 15000
B4 | 26.9
B5 | 66.7
Ac-[Nva]C[dChg]T[Trp(7-aza)]EY[NMeS]AC[Nva]-NH2 (linker 2-10 via mXylyl(3)) [R3093] | > 100000
B6 | 267
B7 | > 100000
[Nva]CY[Tle][Phg]N[Sar]LC[Phg][NMeA]-NH2 (linker 2-9 via mXylyl(4)) [R3052] | > 100000
VVYENGYWEYPGVK (Ac-Nvl-Nvl-Y-E-N-Tbg-Y-azaTrp-E-Y-P-Chg-Nvl-K-(BODIPY-TMR-X) NH2) [R3076] | 297
Ac-[Nva]SYEC[Tle]Y[Trp(7-aza)]EYP[Chg]C[Nva]-NH2 (linker 5-13 via mXylyl(3)) [R3086] | > 50000
Ac-[Nva]C[Phg]T[Trp(7-aza)]QY[NMeS]AC[Nva]-NH2 (linker 2-10 via mXylyl(3)) [R3098] | > 100000
B8 | 81.7
Ac-[Nva]C[Phg]T[Trp(7-aza)]E[Phe(4-F)][NMeS]HC[Nva]-NH2 (linker 2-10 via mXylyl(3)) [R3073] | 403
Ac-[Nva]C[Phg]T[Trp(7-aza)]EY[NMeS]C[Nva]-NH2 (linker 2-9 via mXylyl(3)) [R3080] | > 50000
